Measured values taken from US20210024620A1.

How the values were obtained:
rat FcRn (rat) [1] = molecular target: rat FcRn (rat) (UniProt P13599); assay: Octet BLI, pH 6.0
[2] = molecular target: biotinylated human FcRn (human) (UniProt P55899); assay: Biacore, pH 6.0
rat FcRn (rat) [3] = molecular target: rat FcRn (rat) (UniProt P13599); assay: Biacore, pH 6.0
[4] = molecular target: FcRn immobilised on the FcRn affinity column (biotinylated cynoFcRn in one experiment, biotinylated hFcRn in another); assay: FcRn affinity chromatography, linear pH gradient; species of the immobilised FcRn not given
[5] = molecular target: biotinylated human FcRn (human) (UniProt P55899); assay: Biacore, pH 6.0, apparent KD
rat FcRn (rat) [6] = molecular target: rat FcRn (rat) (UniProt P13599); assay: Biacore, pH 6.0, apparent KD
[7] = molecular target: biotinylated human FcRn (p51 subunit residues 24-297 with C-terminal Avi-tag; beta2-microglobulin residues 21-119) (human) (UniProt P55899); assay: Biacore; affinity at pH 6.0 (M^-1) over steady state RU at pH 7.4
[8] = molecular target: biotinylated human FcRn (human) (UniProt P55899); assay: Biacore SPR, pH 7.4
rat FcRn (rat) [9] = molecular target: rat FcRn (rat) (UniProt P13599); assay: Biacore SPR, pH 7.4
[10] = molecular target: Human CD16a (FcγRIIIa V158) with C-terminal HPC4 tag (human) (UniProt P08637); assay: Biacore SPR, FcγRIIIa
[11] = molecular target: biotinylated human FcRn (human) (UniProt P55899); assay: Biacore SPR, pH 6.0
[12] = molecular target: biotinylated human FcRn (p51 subunit residues 24-297 with C-terminal Avi-tag; beta2-microglobulin residues 21-119) (human) (UniProt P55899); assay: Biacore SPR, pH 6.0
rat FcRn (rat) [13] = molecular target: rat FcRn (rat) (UniProt P13599); assay: Biacore SPR, pH 6.0
[14] = molecular target: biotinylated human FcRn (human) (UniProt P55899); assay: Biacore, pH 7.4, steady state response
rat FcRn (rat) [15] = molecular target: rat FcRn (rat) (UniProt P13599); assay: Biacore, pH 7.4, steady state response
[16] = molecular target: biotinylated human FcRn (p51 subunit residues 24-297 with C-terminal Avi-tag; beta2-microglobulin residues 21-119) (human) (UniProt P55899); assay: Biacore SPR, pH 7.4, steady state
[17] = molecular target: Human CD16a (FcγRIIIa V158) with C-terminal HPC4 tag (human) (UniProt P08637); assay: Biacore, FcγRIIIa V158 captured, steady-state fit, apparent KD
[18] = molecular target: biotinylated human FcRn (human) (UniProt P55899); assay: Biacore SPR, pH 7.4; remark: listed apart in the source
[19] = molecular target: biotinylated human FcRn (human) (UniProt P55899); assay: Biacore SPR, pH 6.0; remark: listed apart in the source
[20] = molecular target: biotinylated human FcRn (human) (UniProt P55899); assay: Biacore SPR, pH 7.4, 1000 nM antibody
rat FcRn (rat) [21] = molecular target: rat FcRn (rat) (UniProt P13599); assay: Biacore SPR, pH 7.4, 1000 nM antibody
[22] = molecular target: Human CD16a (FcγRIIIa V158) with C-terminal HPC4 tag (human) (UniProt P08637); assay: Biacore SPR, FcγRIIIa-V158 captured, pH 7.4
rat FcRn (rat) [23] = molecular target: rat FcRn (rat) (UniProt P13599); assay: Octet BLI screen, pH 6.0
[24] = molecular target: biotinylated human FcRn (p51 subunit residues 24-297 with C-terminal Avi-tag; beta2-microglobulin residues 21-119) (human) (UniProt P55899); assay: Biacore; inverse ratio (RU at pH 7.4 over affinity at pH 6.0)

Human CD16a (FcγRIIIa V158) with C-terminal HPC4 tag (human), sequence (P08637 17-208 F176V): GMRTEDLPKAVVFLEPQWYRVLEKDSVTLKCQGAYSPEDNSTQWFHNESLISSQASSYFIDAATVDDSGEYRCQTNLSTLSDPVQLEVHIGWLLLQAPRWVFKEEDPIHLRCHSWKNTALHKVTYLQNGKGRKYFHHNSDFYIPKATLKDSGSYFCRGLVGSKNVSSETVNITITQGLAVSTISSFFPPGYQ
rat FcRn (rat), sequence (P13599 23-298 limits assumed, chain 1 of 2): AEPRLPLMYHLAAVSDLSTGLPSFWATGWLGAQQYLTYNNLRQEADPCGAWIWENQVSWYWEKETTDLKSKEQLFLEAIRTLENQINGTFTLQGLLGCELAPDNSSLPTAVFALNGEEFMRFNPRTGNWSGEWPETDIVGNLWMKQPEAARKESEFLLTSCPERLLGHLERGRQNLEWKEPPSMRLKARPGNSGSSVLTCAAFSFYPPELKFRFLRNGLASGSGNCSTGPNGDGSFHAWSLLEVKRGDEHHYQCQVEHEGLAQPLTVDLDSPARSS
rat FcRn (rat), sequence (P07151 21-119 limits assumed, chain 2 of 2, further chain): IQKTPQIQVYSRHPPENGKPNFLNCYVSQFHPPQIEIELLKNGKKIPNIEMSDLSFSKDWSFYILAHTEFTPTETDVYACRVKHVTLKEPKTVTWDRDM
biotinylated human FcRn (p51 subunit residues 24-297 with C-terminal Avi-tag; beta2-microglobulin residues 21-119) (human), sequence (P55899 24-297 limits assumed, chain 1 of 2): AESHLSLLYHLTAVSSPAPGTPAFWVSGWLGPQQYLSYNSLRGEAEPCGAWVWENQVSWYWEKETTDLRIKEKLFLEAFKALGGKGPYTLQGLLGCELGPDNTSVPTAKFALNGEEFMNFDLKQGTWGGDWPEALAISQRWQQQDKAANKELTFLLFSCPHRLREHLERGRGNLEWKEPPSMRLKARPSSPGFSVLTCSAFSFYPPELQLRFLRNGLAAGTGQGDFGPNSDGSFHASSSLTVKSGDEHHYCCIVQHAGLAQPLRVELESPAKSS
biotinylated human FcRn (p51 subunit residues 24-297 with C-terminal Avi-tag; beta2-microglobulin residues 21-119) (human), sequence (P61769 21-119 limits assumed, chain 2 of 2, further chain): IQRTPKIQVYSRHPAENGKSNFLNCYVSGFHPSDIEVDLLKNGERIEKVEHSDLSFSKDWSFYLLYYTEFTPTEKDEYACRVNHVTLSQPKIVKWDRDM
biotinylated human FcRn (human), sequence (P55899 24-297 limits assumed, chain 1 of 2): as the sequence (P55899 24-297 limits assumed, chain 1 of 2) above
biotinylated human FcRn (human), sequence (P61769 21-119 limits assumed, chain 2 of 2, further chain): as the sequence (P61769 21-119 limits assumed, chain 2 of 2, further chain) above

| Substance | koff (rat FcRn (rat) [1]) | koff [2] | kon [2] | koff (rat FcRn (rat) [3]) | kon (rat FcRn (rat) [3]) | FcRn affinity column elution pH [4] | Kd [5] | Kd (rat FcRn (rat) [6]) | Ratio (pH 6.0/pH 7.4) [7] | Steady State RU [8] | Steady State RU (rat FcRn (rat) [9]) | koff [11] | kon [11] | Ka [12] | Kd (rat FcRn (rat) [13]) | koff (rat FcRn (rat) [13]) | kon (rat FcRn (rat) [13]) | Steady State RU [14] | Steady State RU (rat FcRn (rat) [21]) | FcγRIIIa V158 affinity fold change relative to WT [22] | other results |
| --- | --- | --- | --- | --- | --- | --- | --- | --- | --- | --- | --- | --- | --- | --- | --- | --- | --- | --- | --- | --- | --- |
| mAb1 YTE (M252Y/S254T/T256E) (antibody) | 0.00066 s⁻¹ | 0.05 s⁻¹ | 143000 M⁻¹ s⁻¹ | 0.0012 s⁻¹ | 65000 M⁻¹ s⁻¹ | 8.14 pH | 342 nM | 18 nM | 221000 | 13.2 RU | 53.9 RU | 0.045 s⁻¹ | 143000 M⁻¹ s⁻¹ | 2.92e+06 M⁻¹ | 18 nM | 0.00121 s⁻¹ | 65200 M⁻¹ s⁻¹ | 13.2 RU | 53.9 RU | 0.52 fold | reduction in binding response vs wildtype [10]: 50%; Steady State RU (rat FcRn (rat) [15]): 53.9 RU; Steady State Binding, pH 7.4 (RU) [16]: 13.2 RU; Kd [17]: 1040 nM; Steady State RU [18]: 13.1 RU; Kd [19]: 342 nM; koff [19]: 0.047 s⁻¹; kon [19]: 140000 M⁻¹ s⁻¹; Steady State RU [20]: 13.2 RU |
| mAb1 N434F (antibody) | – | – | – | – | – | – | – | 26 nM | – | – | 61.5 RU | – | – | – | 26 nM | – | – | – | 54.9 RU | – | enhancement of FcγRIIIa binding vs WT [10]: 16 to 40% |
| mAb1 N434Y (antibody) | 0.00133 s⁻¹ | – | – | 0.0035 s⁻¹ | 145000 M⁻¹ s⁻¹ | 8.46 pH | – | 23 nM | – | – | 66 RU | – | – | – | 23 nM | 0.00346 s⁻¹ | 145000 M⁻¹ s⁻¹ | – | 47 RU | 1.41 fold | fold slower off-rate vs WT (rat FcRn (rat) [23]): > 2 fold; enhancement of FcγRIIIa binding vs WT [10]: 16 to 40% |
| mAb1 LS (M428L/N434S) (antibody) | 0.00338 s⁻¹ | 0.05 s⁻¹ | 193000 M⁻¹ s⁻¹ | 0.0066 s⁻¹ | 91000 M⁻¹ s⁻¹ | 8.29 pH | 272 nM | 74 nM | 201000 | 18.3 RU | 24.8 RU | 0.052 s⁻¹ | 193000 M⁻¹ s⁻¹ | 3.68e+06 M⁻¹ | 74 nM | 0.00658 s⁻¹ | 90800 M⁻¹ s⁻¹ | 18.3 RU | 24.8 RU | 1.04 fold | Steady State RU (rat FcRn (rat) [15]): 24.8 RU; Steady State Binding, pH 7.4 (RU) [16]: 18.3 RU; Kd [17]: 369 nM; Ratio (pH 6.0/pH 7.4) [24]: 4.97e-06; Steady State RU [18]: 18.5 RU; Kd [19]: 272 nM; koff [19]: 0.05 s⁻¹; kon [19]: 190000 M⁻¹ s⁻¹; Steady State RU [20]: 18.3 RU |
